“And” between values parts separate entries of the source, which are not always exact repeats. Identical values can stand only once. Non-standard residues stand in square brackets, D forms with d. No end group written: not given here. Nle = CCCC[C@H](N)C(=O)O
Target: T1, human PTH-1 receptor (human, UniProt Q03431 27-593)
T1 sequence (looked up): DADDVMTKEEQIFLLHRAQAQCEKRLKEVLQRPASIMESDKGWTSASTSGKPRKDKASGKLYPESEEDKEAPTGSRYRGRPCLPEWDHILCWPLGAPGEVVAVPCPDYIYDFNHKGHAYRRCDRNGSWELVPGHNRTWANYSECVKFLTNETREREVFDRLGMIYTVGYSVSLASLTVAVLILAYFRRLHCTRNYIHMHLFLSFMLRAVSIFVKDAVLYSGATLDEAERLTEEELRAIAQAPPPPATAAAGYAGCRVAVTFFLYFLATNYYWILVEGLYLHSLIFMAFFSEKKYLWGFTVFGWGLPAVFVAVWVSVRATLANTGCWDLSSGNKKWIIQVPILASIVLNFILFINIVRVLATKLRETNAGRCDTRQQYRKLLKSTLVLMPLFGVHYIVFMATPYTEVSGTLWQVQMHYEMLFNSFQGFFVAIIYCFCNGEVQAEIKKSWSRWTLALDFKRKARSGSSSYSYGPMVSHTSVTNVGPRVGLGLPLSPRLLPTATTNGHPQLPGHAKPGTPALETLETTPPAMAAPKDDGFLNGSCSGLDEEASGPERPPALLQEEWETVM
Experiment: cell-based or functional assay

Binder | cAMP EC50, SAOS-2 cells | cAMP Emax, SAOS-2 cells [picomole/well]
AVAEIQLMHAR-NH2 [[A3, A10, R11]rPTH(1-11)] | 94.7 µM and -4.12 Log M | 235
AVAEIQLMHARAKH-NH2 [[A3, A10, R11, A12]rPTH(1-14)] | 12.7 µM and -4.9 Log M | 331
AVAEIQLMHARAKHLNSMERVEWLRKKLQDVHNY-NH2 (also called peptide #7; #7) [[A1, A3, A10, R11, A12, Y34]hPTH(1-34)] | 0.00011 µM and -9.95 Log M | 272
AVSEIQL[Nle]HNLGKHLASVER[Nle]QWLRKKLQDVHNY-NH2 [[Nle^8,21,Tyr^34]-rPTH(1-34)NH2] | -9.75 Log M and 0.00018 µM | 272
SVSEIQLMHNLGKHLNSMERVEWLRKKLQDVHNY-NH2 [[Tyr^34]human (h)PTH(1-34)NH2] | – | 307

Target: T2, rat PTH-1 receptor (rat, UniProt P25961 27-591)
T2 sequence (looked up): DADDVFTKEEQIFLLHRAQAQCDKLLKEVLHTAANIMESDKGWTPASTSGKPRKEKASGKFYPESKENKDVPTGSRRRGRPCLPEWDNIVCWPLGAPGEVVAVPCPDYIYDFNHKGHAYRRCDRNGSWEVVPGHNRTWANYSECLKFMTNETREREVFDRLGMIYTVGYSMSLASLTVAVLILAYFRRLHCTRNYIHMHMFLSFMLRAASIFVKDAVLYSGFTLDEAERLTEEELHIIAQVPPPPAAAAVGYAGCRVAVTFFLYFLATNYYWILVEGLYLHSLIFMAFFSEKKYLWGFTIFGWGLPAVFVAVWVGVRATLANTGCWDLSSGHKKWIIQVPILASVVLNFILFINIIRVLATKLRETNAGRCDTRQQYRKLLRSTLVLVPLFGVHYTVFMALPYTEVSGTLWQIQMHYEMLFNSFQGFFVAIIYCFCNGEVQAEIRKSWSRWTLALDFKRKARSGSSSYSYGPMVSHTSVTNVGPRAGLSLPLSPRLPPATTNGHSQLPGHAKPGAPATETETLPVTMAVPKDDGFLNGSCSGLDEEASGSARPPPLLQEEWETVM
Experiment: cell-based or functional assay

Binder | cAMP EC50, ROS 17/2.8 cells | cAMP Emax, ROS 17/2.8 cells [picomole/well]
AVAEIQLMHAR-NH2 [[A3, A10, R11]rPTH(1-11)] | 133 µM and -3.9 Log M | 377
AVAEIQLMHARAKH-NH2 [[A3, A10, R11, A12]rPTH(1-14)] | -5.2 Log M and 7.3 µM | 395
AVAEIQLMHARAKHLNSMERVEWLRKKLQDVHNY-NH2 (also called peptide #7; #7) [[A1, A3, A10, R11, A12, Y34]hPTH(1-34)] | -9.6 Log M and 0.0002 µM | 395
AVSEIQL[Nle]HNLGKHLASVER[Nle]QWLRKKLQDVHNY-NH2 [[Nle^8,21,Tyr^34]-rPTH(1-34)NH2] | -9.5 Log M and 0.0003 µM | 364
AVAEIQLMHARAKW-NH2 [[A3, A10, R11, A12, W14]rPTH(1-14)] | 3.4 µM | 382
SVSEIQLMHNLGKHLNSMERVEWLRKKLQDVHNY-NH2 [[Tyr^34]human (h)PTH(1-34)NH2] | -9.6 Log M and 0.0003 µM | 340
AVSEIQLMHNLGKH-NH2 [native rPTH(1-14)] | -3.4 Log M and 449 µM | 376

Target: human PTH-2 receptor (human, UniProt P49190 25-550)
Sequence (P49190 25-550): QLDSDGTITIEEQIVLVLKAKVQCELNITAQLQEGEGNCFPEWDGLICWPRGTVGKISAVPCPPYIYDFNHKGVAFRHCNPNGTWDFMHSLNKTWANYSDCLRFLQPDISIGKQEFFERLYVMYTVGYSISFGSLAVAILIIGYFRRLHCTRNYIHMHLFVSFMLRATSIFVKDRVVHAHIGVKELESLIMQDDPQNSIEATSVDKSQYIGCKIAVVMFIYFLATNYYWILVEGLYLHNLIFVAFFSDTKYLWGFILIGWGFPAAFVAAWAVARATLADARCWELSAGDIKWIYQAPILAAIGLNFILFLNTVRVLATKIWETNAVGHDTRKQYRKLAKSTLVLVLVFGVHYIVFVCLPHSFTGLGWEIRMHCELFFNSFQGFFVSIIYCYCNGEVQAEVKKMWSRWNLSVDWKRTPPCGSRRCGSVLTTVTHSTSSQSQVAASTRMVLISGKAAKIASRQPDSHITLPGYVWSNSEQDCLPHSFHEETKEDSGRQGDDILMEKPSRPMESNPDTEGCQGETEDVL
Experiment: cell-based or functional assay

Binder | cAMP EC50, LLC-P2R-22 cells | cAMP Emax, LLC-P2R-22 cells [picomole/well]
AVAEIQLMHARA-NH2 [[A3, A10, R11, A12]rPTH(1-12)] | -3.5 Log M and 342 µM | 501
AVAEIQLMHARAKH-NH2 [[A3, A10, R11, A12]rPTH(1-14)] | -3.9 Log M and 126 µM | 292
AVAEIQLMHARAKHLNSMERVEWLRKKLQDVHNY-NH2 (also called peptide #7; #7) [[A1, A3, A10, R11, A12, Y34]hPTH(1-34)] | -7.7 Log M and 0.0192 µM | 677
AVSEIQL[Nle]HNLGKHLASVER[Nle]QWLRKKLQDVHNY-NH2 [[Nle^8,21,Tyr^34]-rPTH(1-34)NH2] | -8.4 Log M and 0.0044 µM | 744
AVAEIQLMHARAK-NH2 [[A3, A10, R11, A12]rPTH(1-13)] | -4 Log M and 106 µM | 501

Target: T1, human PTH-1 receptor
Experiment: cell-based or functional assay
Remark: another data set of the same source

Binder | cAMP EC50, HKRK-B7 cells | cAMP Emax, HKRK-B7 cells [picomole/well]
AVAEIQLMHARA-NH2 [[A3, A10, R11, A12]rPTH(1-12)] | -5 Log M and 10.2 µM | 238
AVAEIQLMHAR-NH2 [[A3, A10, R11]rPTH(1-11)] | -4.8 Log M and 17.1 µM | 248
AVAEIQLMHARAKH-NH2 [[A3, A10, R11, A12]rPTH(1-14)] | -6.1 Log M and 0.83 µM | 264
AVAEIQLMHQRAKH-NH2 [[A3, Q10, R11, A12]rPTH(1-14)] | -6.1 Log M and 0.8 µM | 235
AVAEIQLMHARAKHLNSMERVEWLRKKLQDVHNY-NH2 (also called peptide #7; #7) [[A1, A3, A10, R11, A12, Y34]hPTH(1-34)] | -8.8 Log M and 0.0016 µM | 244
AVSEIQL[Nle]HNLGKHLASVER[Nle]QWLRKKLQDVHNY-NH2 [[Nle^8,21,Tyr^34]-rPTH(1-34)NH2] | -8.6 Log M and 0.0033 µM | 293
AVAEIQLMHARAK-NH2 [[A3, A10, R11, A12]rPTH(1-13)] | -5.6 Log M and 2.4 µM | 239
AVAEIQLMHARAKW-NH2 [[A3, A10, R11, A12, W14]rPTH(1-14)] | -6.3 Log M and 0.6 µM | 262
SVSEIQLMHNLGKHLNSMERVEWLRKKLQDVHNY-NH2 [[Tyr^34]human (h)PTH(1-34)NH2] | -8.4 Log M | 270
AVSEIQLMHNLGKH-NH2 [native rPTH(1-14)] | -3.9 Log M and 133 µM | 299

Target: T1, human PTH-1 receptor
Experiment: competition binding on HKRK-B7 cells, 125I-rPTH(1-34) tracer displaced by varying doses of unlabeled peptide
Procedure: Binding reactions were performed with stably transfected HKRK-B7 cells in 24-well plates. […] Incubations (final volume=300 µL) were at 15° C. for 4 h. Cells were then placed on ice, the binding medium was removed, and the monolayer was rinsed three times with 0.5 mL of cold binding buffer. The cells were subsequently lysed with 0.5 mL 5N NaOH and counted for radioactivity. The non-specific binding for each experiment was determined by competition with a 1 µM dose of unlabeled rPTH(1–34). The maximum specific binding (B_0) was the total radioactivity bound in the absence of unlabeled PTH ligand, corrected for nonspecific binding. Binding $IC50$ values were determined using nonlinear regression (see below).
To determine if these substitutions could enhance the activity of PTH(1–34), the substitutions of Ser3→Ala, Asn10→Ala, Leu11→Arg and Gly12→Ala were introduced into the analog [Ala1,Tyr34]hPTH(1–34) to yield peptide #7.

Binder | fold improvement in binding affinity, as compared to rPTH(1-34) [fold]
AVAEIQLMHARAKHLNSMERVEWLRKKLQDVHNY-NH2 (also called peptide #7; #7) [[A1, A3, A10, R11, A12, Y34]hPTH(1-34)] | ~2

Target: truncated human PTH-1 receptor hDelNt (human), Q03431
Experiment: cell-based or functional assay

Binder | cAMP Emax, COS-7 cells with hDeINt (picomole/well) | cAMP potency against native PTH(1-14) [fold]
AVAEIQLMHAR-NH2 [[A3, A10, R11]rPTH(1-11)] | 243 | –
AVAEIQLMHARAKH-NH2 [[A3, A10, R11, A12]rPTH(1-14)] | 250 | 100
AVAEIQLMHARAKHLNSMERVEWLRKKLQDVHNY-NH2 (also called peptide #7; #7) [[A1, A3, A10, R11, A12, Y34]hPTH(1-34)] | 251 | –
AVSEIQL[Nle]HNLGKHLASVER[Nle]QWLRKKLQDVHNY-NH2 [[Nle^8,21,Tyr^34]-rPTH(1-34)NH2] | 243 | –
SVSEIQLMHNLGKHLNSMERVEWLRKKLQDVHNY-NH2 [[Tyr^34]human (h)PTH(1-34)NH2] | 238 | –
AVSEIQLMHNLGKH-NH2 [native rPTH(1-14)] | 222 | –

Target: T1, human PTH-1 receptor
Experiment: cell-based or functional assay
Remark: another data set of the same source

Binder | cAMP EC50, COS-7 cells with WT hPTH-1 receptor | cAMP Emax, COS-7 cells with WT hPTH-1 receptor [picomole/well]
AVAEIQLMHAR-NH2 [[A3, A10, R11]rPTH(1-11)] | -4.6 Log M and 29.1 µM | 238
AVAEIQLMHARAKH-NH2 [[A3, A10, R11, A12]rPTH(1-14)] | -6 Log M and 4.66 µM | 243
AVAEIQLMHARAKHLNSMERVEWLRKKLQDVHNY-NH2 (also called peptide #7; #7) [[A1, A3, A10, R11, A12, Y34]hPTH(1-34)] | -3.5 Log M and 313 µM | 222
AVSEIQL[Nle]HNLGKHLASVER[Nle]QWLRKKLQDVHNY-NH2 [[Nle^8,21,Tyr^34]-rPTH(1-34)NH2] | -9.2 Log M and 0.0007 µM | 226
SVSEIQLMHNLGKHLNSMERVEWLRKKLQDVHNY-NH2 [[Tyr^34]human (h)PTH(1-34)NH2] | -9.3 Log M | 226
AVSEIQLMHNLGKH-NH2 [native rPTH(1-14)] | -3.8 Log M and 152 µM | 221

Target: T1, human PTH-1 receptor
Experiment: cell-based or functional assay
Remark: another data set of the same source

Binder | cAMP potency against controls, HKRK-B7 cells [fold] | cAMP potency against native PTH(1-14) [fold]
AVAEIQLMHARAKHLNSMERVEWLRKKLQDVHNY-NH2 (also called peptide #7; #7) [[A1, A3, A10, R11, A12, Y34]hPTH(1-34)] | ~2 | –
AVAEIQLMHARAKW-NH2 [[A3, A10, R11, A12, W14]rPTH(1-14)] | – | 220

Reference: patent US7022815 (GENERAL HOSPITAL, dated 2006)
